Three molecules from article PMC6884004 can be followed below.

For test [1], the target named is Full length human MCAK (mitotic centromere-associated kinesin) (human) (UniProt Q99661). Put plainly: pull-down; full length human MCAK coupled (1 µg/µl beads) to cyanogen bromide-activated Sepharose beads via lysines or the N-terminal amine; beads pre-incubated with 5 mM AMPPNP or ADP for 30 min at 20°C; 15 μM porcine brain tubulin, 30 min, 20°C; nucleotide kept in the washing buffer; SDS-PAGE band intensity compared with uncoated beads.

For test [2], the target named is synthetic MTED peptide (MT elimination domain of Drosophila Efa6) (Drosophila melanogaster). The experiment in a line: pull-down; MTED or scrambled peptide coupled via the N-terminal amine to cyanogen bromide-activated Sepharose beads (5 ng peptide/μl beads); 15 μM porcine brain tubulin (un-polymerised GDP-tubulin); BRB80 with 0.2% Tween 20, 30 min, 20°C; five washes; SDS-PAGE band intensity compared with uncoated beads.

In test [3] the target is GMPCPP-stabilised, rhodamine-labeled microtubules grown from porcine brain tubulin (porcine) (UniProt P02550). The experiment in a line: TIRF microscopy of GFP-tagged protein on surface-adhered microtubules; GMPCPP-stabilised rhodamine-labeled MTs adhered to flow chambers; 20 nM Efa6-ΔCterm::GFP in BRB20 pH 6.9, 75 mM KCl, 0.05% Tween20, 0.1 mg/ml BSA, or 20 nM MCAK::GFP in the same buffer plus 1 mM ATP and 1 mM taxol; mean GFP intensity on individual MTs.

Test [4] addresses porcine brain tubulin (un-polymerised GDP-tubulin) (porcine) (UniProt P02550).

Take “porcine brain tubulin (un-polymerised GDP-tubulin) (from UniProt P02550 1-451; P02554 1-445) (complex)”: in test [1], the fold tubulin pulled down against uncoated beads (with AMPPNP or ADP) was determined as 1.5 fold. In test [2], the fold tubulin pulled down against beads coated with scrambled peptide was 5 fold and the fold tubulin pulled down against uncoated beads was 3 fold.

B1: MCAK::GFP (His6-MCAK::EGFP-StrepII) (enzyme)
chain: MAMDSSLQARLFPGLAIKIQRSNGLIHSANVRTVNLEKSCVSVEWAEGGATKGKEIDFDDVAAINPELLQLLPLHPKDNLPLQENVTIQKQKRRSVNSKIPAPKESLRSRSTRMSTVSELRITAQENDMEVELPAAANSRKQFSVPPAPTRPSCPAVAEIPLRMVSEEMEEQVHSIRGSSSANPVNSVRRKSCLVKEVEKMKNKREEKKAQNSEMRMKRAQEYDSSFPNWEFARMIKEFRATLECHPLTMTDPIEEHRICVCVRKRPLNKQELAKKEIDVISIPSKCLLLVHEPKLKVDLTKYLENQAFCFDFAFDETASNEVVYRFTARPLVQTIFEGGKATCFAYGQTGSGKTHTMGGDLSGKAQNASKGIYAMASRDVFLLKNQPCYRKLGLEVYVTFFEIYNGKLFDLLNKKAKLRVLEDGKQQVQVVGLQEHLVNSADDVIKMIDMGSACRTSGQTFANSNSSRSHACFQIILRAKGRMHGKFSLVDLAGNERGADTSSADRQTRMEGAEINKSLLALKECIRALGQNKAHTPFRESKLTQVLRDSFIGENSRTCMIATISPGISSCEYTLNTLRYADRVKELSPHSGPSGEQLIQMETEEMEACSNGALIPGNLSKEEEELSSQMSSFNEAMTQIRELEEKAMEELKEIIQQGPDWLELSEMTEQPDYDLETFVNKAESALAQQAKHFSALRDVIKALRLAMQLEEQASRQISSKKRPQ
On to B1, for which, in test [3], the fold of molecules on MTs against Efa6-ΔCterm::GFP at the same concentration was over 2 fold.

Turning to APRFEAYMMTGDLILNLSRT [synthetic MTED peptide (MT elimination domain of Drosophila Efa6)], the fold decrease in amount of MT polymer in the MT growth assay (30 μM tubulin with 30 μM MTED peptide, against no peptide) in test [4] worked out at 10 fold.
